Values quoted from earlier work as cited in publication PMC10876095.
Where two headings read alike, the source gives them in different places.

Assays:
[1] = biological target: tau (Homo sapiens) (UniProt P10636); assay: SPR
[2] = biological target: tau (Homo sapiens) (UniProt P10636); assay: SPR; remark: listed apart in the source
[3] = biological target: tau (Homo sapiens) (UniProt P10636)

UniProt P10636, sequence (P10636 2-758): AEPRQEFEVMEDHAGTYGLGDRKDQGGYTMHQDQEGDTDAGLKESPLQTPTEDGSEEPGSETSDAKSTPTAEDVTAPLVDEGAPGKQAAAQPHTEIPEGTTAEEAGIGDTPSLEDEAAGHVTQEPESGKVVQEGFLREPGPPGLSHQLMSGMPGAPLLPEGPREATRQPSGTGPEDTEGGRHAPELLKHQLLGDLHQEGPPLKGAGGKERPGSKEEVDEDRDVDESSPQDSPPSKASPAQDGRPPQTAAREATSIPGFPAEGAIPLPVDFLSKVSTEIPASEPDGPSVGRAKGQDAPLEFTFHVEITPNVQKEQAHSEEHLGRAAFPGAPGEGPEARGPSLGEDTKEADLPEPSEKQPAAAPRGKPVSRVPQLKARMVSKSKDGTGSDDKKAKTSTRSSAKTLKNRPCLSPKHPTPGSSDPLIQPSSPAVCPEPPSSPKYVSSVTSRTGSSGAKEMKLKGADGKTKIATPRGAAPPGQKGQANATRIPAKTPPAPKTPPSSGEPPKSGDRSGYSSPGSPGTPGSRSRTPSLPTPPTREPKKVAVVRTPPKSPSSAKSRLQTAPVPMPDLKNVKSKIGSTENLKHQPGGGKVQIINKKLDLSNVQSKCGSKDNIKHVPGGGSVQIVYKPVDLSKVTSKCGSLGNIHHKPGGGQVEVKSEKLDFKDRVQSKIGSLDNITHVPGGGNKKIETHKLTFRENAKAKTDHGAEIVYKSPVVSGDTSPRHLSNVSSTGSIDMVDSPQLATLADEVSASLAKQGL

For 14-3-3ζ (from UniProt P63104), the Kd [1] is given as 312 nM, the Kd [2] is given as 22 nM and the Kd [3] is given as 900 nM.
